Measured values from the supplement of paper PMC10567573.

B1: SMTNL2 (parent)
chain: ETAAGKGKGEARARLKRSQSFGVA

Variants of: B1
Assay: protein stability index of a GFP-peptide fusion (GPS, HEK-293T) (PSI 1-6); higher = more stable
Conditions: c terminus: a fixed tail appended
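Further: lentivirally expressed fusions sorted by FACS into six bins by GFP to DsRed ratio, PSI derived from sequencing read proportions per bin multiplied by bin number.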

Variant | protein stability index
ETAAGKGKGEARARLKRSQSFGIA [V23I] | 4.39
ETAAGKGKGEARARLKRSQSFGHA [V23H] | 5.02
ETAAGKGKGEARARLKRSQSFGEA [V23E] | 5.35
ETAAGKGKGEARARLKRSQSFGPA [V23P] | 4.62
ETAAGKGKGEARARLKRSQSFGDA [V23D] | 4.84
ETAAGKGKGEARARLKRSQSFGCA [V23C] | 4.83
ETAAGKGKGEARARLKRSQSFGRA [V23R] | 4.89
ETAAGKGKGEARARLKRSQSFGNA [V23N] | 4.68
ETAAGKGKGEARARLKRSQSFGMA [V23M] | 4.84
ETAAGKGKGEARARLKRSQSFGYA [V23Y] | 4.11
ETAAGKGKGEARARLKRSQSFGTA [V23T] | 4.75
ETAAGKGKGEARARLKRSQSFGQA [V23Q] | 4.94
ETAAGKGKGEARARLKRSQSFGKA [V23K] | 4.95
ETAAGKGKGEARARLKRSQSFGGA [V23G] | 5.23
ETAAGKGKGEARARLKRSQSFGWA [V23W] | 3.96
ETAAGKGKGEARARLKRSQSFGLA [V23L] | 3.68
ETAAGKGKGEARARLKRSQSFGFA [V23F] | 3.98
ETAAGKGKGEARARLKRSQSFGAA [V23A] | 5.1
ETAAGKGKGEARARLKRSQSFGSA [V23S] | 5.17
ETAAGKGKGEARARLKRSQSFGVE [A24E] | 4.71
ETAAGKGKGEARARLKRSQSFGVW [A24W] | 3.57
ETAAGKGKGEARARLKRSQSFGVR [A24R] | 4.52
ETAAGKGKGEARARLKRSQSFGVN [A24N] | 5.09
ETAAGKGKGEARARLKRSQSFGVI [A24I] | 3.75
ETAAGKGKGEARARLKRSQSFGVF [A24F] | 3.97
ETAAGKGKGEARARLKRSQSFGVQ [A24Q] | 4.51

Variant | protein stability index
ETAAGKGKGEARARLKRSQSFGVV [A24V] | 4.01
ETAAGKGKGEARARLKRSQSFGVL [A24L] | 4.49
ETAAGKGKGEARARLKRSQSFGVC [A24C] | 4.28
ETAAGKGKGEARARLKRSQSFGVP [A24P] | 4.88
ETAAGKGKGEARARLKRSQSFGVK [A24K] | 4.41
ETAAGKGKGEARARLKRSQSFGVS [A24S] | 4.65
ETAAGKGKGEARARLKRSQSFGVT [A24T] | 4.23
ETAAGKGKGEARARLKRSQSFGVY [A24Y] | 3.72
ETAAGKGKGEARARLKRSQSFGVG [A24G] | 4.6
ETAAGKGKGEARARLKRSQSFGVM [A24M] | 4.29
ETAAGKGKGEARARLKRSQSFGVH [A24H] | 4.27
ETAAGKGKGEARARLKRSQSFGVD [A24D] | 4.9
ETAAGKGKGEARARLKRSQSFSVA [G22S] | 5.13
ETAAGKGKGEARARLKRSQSFNVA [G22N] | 4.76
ETAAGKGKGEARARLKRSQSFVVA [G22V] | 4.32
ETAAGKGKGEARARLKRSQSFAVA [G22A] | 4.2
ETAAGKGKGEARARLKRSQSFDVA [G22D] | 5.1
ETAAGKGKGEARARLKRSQSFHVA [G22H] | 4.14
ETAAGKGKGEARARLKRSQSFIVA [G22I] | 3.9
ETAAGKGKGEARARLKRSQSFLVA [G22L] | 4.1
ETAAGKGKGEARARLKRSQSFEVA [G22E] | 5.65
ETAAGKGKGEARARLKRSQSFMVA [G22M] | 3.86
ETAAGKGKGEARARLKRSQSFWVA [G22W] | 2.81
ETAAGKGKGEARARLKRSQSFYVA [G22Y] | 3.84
ETAAGKGKGEARARLKRSQSFTVA [G22T] | 4.31
ETAAGKGKGEARARLKRSQSFCVA [G22C] | 4.84

Variant | protein stability index
ETAAGKGKGEARARLKRSQSFFVA [G22F] | 2.84
ETAAGKGKGEARARLKRSQSFKVA [G22K] | 4.81
ETAAGKGKGEARARLKRSQSFQVA [G22Q] | 4.36
ETAAGKGKGEARARLKRSQSFRVA [G22R] | 4.28
ETAAGKGKGEARARLKRSQSFPVA [G22P] | 5.71
ETAAGKGKGEARARLKRSQSNGVA [F21N] | 5
ETAAGKGKGEARARLKRSQSQGVA [F21Q] | 5.2
ETAAGKGKGEARARLKRSQSGGVA [F21G] | 4.08
ETAAGKGKGEARARLKRSQSVGVA [F21V] | 5.25
ETAAGKGKGEARARLKRSQSCGVA [F21C] | 5.02
ETAAGKGKGEARARLKRSQSEGVA [F21E] | 5.45
ETAAGKGKGEARARLKRSQSRGVA [F21R] | 4.23
ETAAGKGKGEARARLKRSQSKGVA [F21K] | 5.23
ETAAGKGKGEARARLKRSQSWGVA [F21W] | 3.22
ETAAGKGKGEARARLKRSQSLGVA [F21L] | 5.02
ETAAGKGKGEARARLKRSQSSGVA [F21S] | 5.07
ETAAGKGKGEARARLKRSQSAGVA [F21A] | 5.25
ETAAGKGKGEARARLKRSQSPGVA [F21P] | 5.12
ETAAGKGKGEARARLKRSQSYGVA [F21Y] | 4.65
ETAAGKGKGEARARLKRSQSTGVA [F21T] | 5.16
ETAAGKGKGEARARLKRSQSIGVA [F21I] | 5.28
ETAAGKGKGEARARLKRSQSHGVA [F21H] | 4.96
ETAAGKGKGEARARLKRSQSMGVA [F21M] | 4.3
ETAAGKGKGEARARLKRSQSDGVA [F21D] | 5.51
